From article PMC12666658

Assays:
[1] = target: CD3 receptor on T cells (human PBMCs) (human (endogenous in PBMCs)) (UniProt P07766)
[2] = target: CD3 receptor on T cells (human PBMCs) (human (endogenous in PBMCs)) (UniProt P07766); remark: listed apart in the source
[3] = target: CD3 receptor on T cells (human PBMCs) (human (endogenous in PBMCs)) (UniProt P07766); remark: listed apart in the source

Sequence of UniProt P07766 (P07766 23-207): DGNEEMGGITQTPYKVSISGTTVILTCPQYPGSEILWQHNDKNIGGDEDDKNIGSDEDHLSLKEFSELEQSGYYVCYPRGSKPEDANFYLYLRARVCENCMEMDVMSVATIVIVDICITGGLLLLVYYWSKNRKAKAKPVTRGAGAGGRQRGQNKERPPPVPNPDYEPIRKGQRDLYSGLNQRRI

For “SadP-scFv UCHT1 lectibody (from UniProt G5DSS1)”, which fold increase of CD71 on CD3+ T cells (PBMCs co-cultured with Gb3+ Ramos cells), 5 or 10 nM lectibody, 24 and 48 hours; highest at 10 nM and 48 hours [1] is on record?
The fold increase of CD71 on CD3+ T cells (PBMCs co-cultured with Gb3+ Ramos cells), 5 or 10 nM lectibody, 24 and 48 hours; highest at 10 nM and 48 hours was 25 fold.

And the fold increase of CD69 on CD3+ T cells (PBMCs co-cultured with Gb3+ Ramos cells), 5 or 10 nM lectibody, 18 and 24 hours; highest at 10 nM and 24 hours [2]?
Its fold increase of CD69 on CD3+ T cells (PBMCs co-cultured with Gb3+ Ramos cells), 5 or 10 nM lectibody, 18 and 24 hours; highest at 10 nM and 24 hours is 5 to 8 fold.

What about the specific lysis of Gb3+ Ramos cells by PBMCs (E:T 5:1), bioluminescence-based cytotoxicity assay, 0.2–10 nM lectibody, 7 to 48 hours; highest at 10 nM and 48 hours [3] of the same substance?
Its specific lysis of Gb3+ Ramos cells by PBMCs (E:T 5:1), bioluminescence-based cytotoxicity assay, 0.2–10 nM lectibody, 7 to 48 hours; highest at 10 nM and 48 hours is 65%.
